Results as given in patent US20200377590A1 (Hoffmann-La Roche, published 2020).
Where a chain is given by its changes, count along the chain named.

T1: CD81 (UniProt P60033 1-236, limits assumed)
T1 construct: whole, on cells; also called CD81 receptor
T1 sequence (looked up): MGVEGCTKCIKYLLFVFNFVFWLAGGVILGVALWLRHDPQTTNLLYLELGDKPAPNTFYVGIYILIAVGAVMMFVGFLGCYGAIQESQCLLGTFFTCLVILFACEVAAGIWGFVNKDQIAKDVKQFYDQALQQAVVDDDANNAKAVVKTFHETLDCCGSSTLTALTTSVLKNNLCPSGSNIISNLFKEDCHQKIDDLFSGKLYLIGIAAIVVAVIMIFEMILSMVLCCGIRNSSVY

B1: CD81K04 HC CD81K04 / LC GG-06-hVK_1_39 (antibody, V domains shown)
VH: QVQLQQSGPELVKPGASVKISCKASGYTFSSSWMNWVKQRPGKGLEWIGRIYSGDGDAIYNGKFKGKATLTADKSSSTAYMQLSSLTSEDSAVYFCAREGKTGDLLLRSWGQGSALTVSS
VL: DIQMTQSPSSLSASVGDRVTITCRASKSVSTSIYSYLNWYQQKPGKAPKLLIYYASYLQSGVPSRFSGSGSGTDFTLTISSLQPEDFATYYCQHSREFPYTFGQGTKLEIK
notes: human constant region
B2: CD81K04 HC GG-01-hVH_5_51 / LC GG-06-hVK_1_39 (antibody, V domains shown)
VH: EVQLVQSGAEVKKPGESLKISCKGSGYSFSSSWMNWVRQMPGKGLEWMGRIYSGDGDAIYSPSFQGQVTISADKSISTAYLQLSSLKASDTAMYYCAREGKTGDLLLRSWGQGTLVTVSS
VL: B1 VL
notes: human constant region
B3: CD81K04 HC CD81K04 / LC GG-02-hVK_4_1 (antibody, V domains shown)
VH: B1 VH
VL: DIVMTQSPDSLAVSLGERATINCKSSKSVSTSIYSYMHWYQQKPGQPPKLLIYYASYRESGVPDRFSGSGSGTDFTLTISSLQAEDVAVYYCQHSREFPFTFGQGTKLEIK
notes: human constant region
B4: CD81K04 HC CD81K04 / LC JA_GG-10-hVK_4_1 (antibody, V domains shown)
VH: B1 VH
VL: B3 VL with K24R, S25A, Y53K, R58L, Q93E
notes: human constant region
B5: CD81K04 HC JA_GG-15-hVH_1_3 / LC CD81K04 (antibody, V domains shown)
VH: QVQLVQSGAEVKKPGASVKVSCKASGYTFSSSWMNWVRQAPGQRLEWMGRIYSGDGDAIYNGKFKGRVTITADTSASTAYMELSSLRSEDTAVYYCAREGKTGDLLLRSWGQGTLVTVSS
VL: DIVLTQSPASLSVSLGQRATISCRASKSVSTSIYSYMHWYQQKPGQPPKLLIKYASYLESGVPARFSGSGSGTDFTLNIHPVEEEDAATYYCEHSREFPFTFGTGTKLEIK
notes: human constant region
B6: CD81K04 HC GG-01-hVH_5_51 / LC CD81K04 (antibody, V domains shown)
VH: B2 VH
VL: B5 VL
notes: human constant region
B7: CD81K04 HC CD81K04 / LC CD81K04 (antibody, V domains shown)
VH: B1 VH
VL: B5 VL
notes: human constant region; also called CD81K04 (chimeric form)
B8: CD81K04 HC GG-05-hVH_1_18 / LC JA_GG-10-hVK_4_1 (antibody, V domains shown)
VH: B5 VH with R44G, N61A, G62Q, F64L, K65Q, I70M, A72T, A76T, S84R, E89D
VL: B3 VL with K24R, S25A, Y53K, R58L, Q93E
notes: human constant region
B9: CD81K04 HC K04_JA-13-hVH_1_3 / LC CD81K04 (antibody, V domains shown)
VH: B5 VH with A72R
VL: B5 VL
notes: human constant region
B10: CD81K04 HC GG-07-hVH_5_51 / LC CD81K04 (antibody, V domains shown)
VH: B2 VH with N35C, R50C
VL: B5 VL
notes: human constant region
B11: CD81K04 HC JA_GG-16-hVH_1_3 / LC CD81K04 (antibody, V domains shown)
VH: B5 VH with R44G
VL: B5 VL
notes: human constant region
B12: CD81K04 HC GG-01-hVH_5_51 / LC GG-02-hVK_4_1 (antibody, V domains shown)
VH: B2 VH
VL: B3 VL
notes: human constant region
B13: CD81K04 HC GG-01-hVH_5_51 / LC JA_GG-07-hVK_7_3 (antibody, V domains shown)
VH: B2 VH
VL: DIVLTQSPASLAVSPGQRATITCRASKSVSTSIYSYMHWYQQKPGQPPKLLIKYASNKDTGVPARFSGSGSGTDFTLTINPVEANDAANYYCLHSREFPYTFGQGTKLEIK
notes: human constant region
B14: CD81K04 HC GG-01-hVH_5_51 / LC GG-05-hVK_3_11 (antibody, V domains shown)
VH: B2 VH
VL: EIVLTQSPATLSLSPGERATLSCRASKSVSTSIYSYLHWYQQKPGQAPRLLIYYASNRETGIPARFSGSGSGTDFTLTISSLEPEDFAVYYCQHSREFPFTFGQGTKLEIK
notes: human constant region
B15: CD81K04 HC GG-01-hVH_5_51 / LC JA_GG-09-hVK_4_1 (antibody, V domains shown)
VH: B2 VH
VL: B3 VL with Y53K, Y57T, Q93E
notes: human constant region
B16: CD81K04 HC GG-01-hVH_5_51 / LC GG-03-hVK_4_1 (antibody, V domains shown)
VH: B2 VH
VL: B3 VL with M37L, H38A
notes: human constant region
B17: CD81K04 HC GG-01-hVH_5_51 / LC JA_GG-08-hVK_4_1 (antibody, V domains shown)
VH: B2 VH
VL: B3 VL with Y53K, R58L, Q93E
notes: human constant region
B18: CD81K04 HC GG-01-hVH_5_51 / LC JA_GG-10-hVK_4_1 (antibody, V domains shown)
VH: B2 VH
VL: B3 VL with K24R, S25A, Y53K, R58L, Q93E
notes: human constant region
B19: CD81K04 HC GG-01-hVH_5_51 / LC GG-04-hVK_4_1 (antibody, V domains shown)
VH: B2 VH
VL: B3 VL with M37L, H38A, Y57T, F100Y
notes: human constant region
B20: CD81K13 HC CD81K13 / LC 1c-hVK_3_15 (antibody, V domains shown)
VH: EVRLHQSAAQLVQPGASVRLSCTTSGFNFKDSYLHWVKQRPAQGLEWIGRIDTGNGNVKFDPKFQDKATITTDIPSMTAYLHLSNLTSEDTAVYYCVPYGYGFHSWGDGTTLTVSS
VL: EIVMTQSPATLSVSPGERATLSCRASENIYRTLAWYQQKPGQAPRLLIYGATTLADGIPARFSGSGSGTEFTLTISSLQSEDFGVYYCQHFWGTPWTFGQGTKVEIK
notes: human constant region
B21: CD81K13 HC 01-hVH_1_f / LC 1b-hVK_3_15 (antibody, V domains shown)
VH: EVQLVQSGAEVKKPGATVKISCKVSGYTFTDSYMHWVQQAPGKGLEWMGRIDTGNGNVKFDPKFQGRVTITADTSTDTAYMELSSLRSEDTAVYYCAPYGYGFHSWGQGTLVTVSS
VL: B20 VL with G84A
notes: human constant region
B22: CD81K13 HC 01-hVH_1_f / LC 01-hVK_3_15 (antibody, V domains shown)
VH: B21 VH
VL: B20 VL with L54R, D56T
notes: human constant region
B23: CD81K13 HC CD81K13 / LC 05-hVK_1_39 (antibody, V domains shown)
VH: B20 VH
VL: DIQMTQSPSSLSASVGDRVTITCRASENIYRTLAWYQQKPGKAPKLLIYAATTLASGVPSRFSGSGSGTDFTLTISSLQPEDFATYYCQHFWGTPWTFGQGTKVEIK
notes: human constant region
B24: CD81K13 HC 01-hVH_1_f / LC 1c-hVK_3_15 (antibody, V domains shown)
VH: B21 VH
VL: B20 VL
notes: human constant region
B25: CD81K13 HC CD81K13 / LC 06-hVK_1_39 (antibody, V domains shown)
VH: B20 VH
VL: B23 VL with A84G
notes: human constant region
B26: CD81K13 HC CD81K13 / LC 5b-hVK_1_39-GA (antibody, V domains shown)
VH: B20 VH
VL: B23 VL with A50G, S56D
notes: human constant region
B27: CD81K13 HC CD81K13 / LC 1b-hVK_3_15 (antibody, V domains shown)
VH: B20 VH
VL: B20 VL with G84A
notes: human constant region
B28: CD81K13 HC CD81K13 / LC 5b-hVK_1_39 (antibody, V domains shown)
VH: B20 VH
VL: B23 VL with A50G, S56D
notes: human constant region
B29: CD81K13 HC CD81K13 / LC 01-hVK_3_15 (antibody, V domains shown)
VH: B20 VH
VL: B20 VL with L54R, D56T
notes: human constant region
B30: CD81K13 HC CD81K13 / LC 04-hVK_1_9 (antibody, V domains shown)
VH: B20 VH
VL: B23 VL with M4L, S10F, D70E, A84G
notes: human constant region
B31: CD81K13 HC CD81K13 / LC 07-hVK_1_27 (antibody, V domains shown)
VH: B20 VH
VL: B23 VL with A43V, F83V, A84G, H90K
notes: human constant region
B32: CD81K13 HC CD81K13 / LC 03-hVK_1_9 (antibody, V domains shown)
VH: B20 VH
VL: B23 VL with M4L, S10F, D70E
notes: human constant region
B33: CD81K13 HC 01-hVH_1_f / LC CD81K13 (antibody, V domains shown)
VH: B21 VH
VL: DIQMTQSPASLSVSVGETVTITCRASENIYRTLAWYLQKQGKSPQLLVYGATTLADGVPSRFSGSGSGTQYYLKINSLQSEDFGTYHCQHFWGTPWTFGGGTKVEIK
notes: human constant region
B34: CD81K13 HC 01-hVH_1_f / LC 03-hVK_1_9 (antibody, V domains shown)
VH: B21 VH
VL: B23 VL with M4L, S10F, D70E
notes: human constant region

target: T1, CD81; test: cell ELISA
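Further: antibody binding to HuH7 cells expressing CD81 versus a CD81-negative HuH7 control line, bound antibody detected by secondary reagent, absorbance at 450 nm with 620 nm reference.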
Experimental: For the binding cell ELISA assay, HuH7-Rluc-H3 (positive cell line expressing CD81) and HuH7-Rluc-L1 (negative control cell line) were propagated in F-12 DMEM medium with 10% FCS at 37° C. and 5% CO₂. On day 1, the cells were trypsinized at approximately 90% confluence and resuspended at 4×10⁵ cells/mL. […] On day 2, the antibody samples to be tested were prepared in a separate polypropylene round bottom plate with a twofold desired concentration with a final volume of 120 μl. All of the assay samples were diluted in cell culture medium. […] After fixation, each well was washed 3 times with 200 μL PBS/0.05% Tween. The secondary incubation step for detection of bound anti-CD81 antibodies was performed for 2 h at room temperature on a reciprocal shaker. […] Each well was washed three times with 200 μL PBS/0.05% Tween to remove unbound antibodies. […] The absorbance was read using the ELISA Tecan reader at 450 nm with 620 nm reference wavelength.

Binder | ELISA data
B1 | 0.185
B2 | 0.089
B3 | 0.785
B4 | 1.06
B5 | 1
B6 | 0.082
B7 | 1.14
B8 | 0.841
B9 | 0.974
B10 | 0.233
B11 | 0.98
B12 | 0.081
B13 | 0.061
B14 | 0.073
B15 | 0.148
B16 | 0.129
B17 | 0.164
B18 | 0.064
B19 | 0.186

target: T1, CD81; test: cell ELISA; remark: another data set of the same source

Binder | ELISA data
B20 | 0.95
B21 | 0.392
B22 | 0.527
B23 | 0.886
B24 | 0.617
B25 | 0.811
B26 | 0.751
B27 | 0.86
B28 | 0.594
B29 | 1.01
B30 | 0.851
B31 | 0.199
B32 | 0.949
B33 | 0.272
B34 | 0.294
